Reference: publication PMC4072508, “Genome-Wide Prediction and Validation of Peptides That Bind Human Prosurvival Bcl-2 Proteins” (PLoS Computational Biology, 2014)

T1: Mcl-1, Q07820
T1 chain: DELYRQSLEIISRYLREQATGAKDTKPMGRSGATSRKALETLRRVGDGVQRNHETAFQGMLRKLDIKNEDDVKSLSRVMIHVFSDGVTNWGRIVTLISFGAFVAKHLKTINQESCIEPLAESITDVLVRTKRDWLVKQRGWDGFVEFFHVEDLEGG


What was measured:
Mcl-1, Q07820 = biological target: T1, Mcl-1, Q07820; experiment: peptide SPOT array, c-Myc-tagged receptor at 1 uM or 100 nM, anti-c-Myc-Cy3
Bcl-xL, Q07817 = experiment: as above
Chain of Bcl-xL, Q07817 (Q07817 1-209): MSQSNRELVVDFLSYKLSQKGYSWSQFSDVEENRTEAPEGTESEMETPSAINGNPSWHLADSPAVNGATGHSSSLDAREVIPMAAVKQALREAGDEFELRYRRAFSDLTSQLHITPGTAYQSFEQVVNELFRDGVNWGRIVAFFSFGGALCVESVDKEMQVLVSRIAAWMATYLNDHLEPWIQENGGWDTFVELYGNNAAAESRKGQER

SPOT signal as a fraction of Bim BH3's signal on the same receptor and array (Mcl-1, Q07820) | SPOT signal as a fraction of Bim BH3's signal on the same receptor and array (Bcl-xL, Q07817) | Binder
0.01 | 0.01 | SALETQVAAADQALADDYLAQLSLEP
0.05 | 0.04 | SAGVPVRGVELQAALERFARCFGRTD [TIGD7]
0.02 | 0.02 | AALFLHAGCQDLTAGEDGKVQVWSGS [TEP1]
0.02 | 0.02 | ITVVGDVGGRIAIIVDDIIDDVESFV [PRPSAP1]
0.02 | 0.02 | SALETQVAAAVQALLDDYLAQLSLEP
0.01 | 0.01 | GKPETCTGQDDADLGDRLRDWFQLLH [SPOCK2]
0.02 | 0.02 | SHALICISHWDLGIGDRHLNNFMVAM [PRKDC]
0.07 | 0.12 | AKFLLYLGHSLSTWLDRMWHFAVSVF [SLC40A1]
0.02 | 0.02 | DLLGMVVVDEDHMLGDSHRGYLLELL [POLQ]
0.01 | 0.01 | LGLGELAGLTDANEADSLTYDIANNK [STRN]
0.01 | 0.01 | IQQDLGCGASDGVISDNLLVTGGQGC [SCAP]
0.01 | 0.01 | AVLCVECGYKYRFFGEDAEIAARELN [MSH3]

The remaining lines, values behind:

Binder | SPOT signal as a fraction of Bim BH3's signal on the same receptor and array (Mcl-1, Q07820) | SPOT signal as a fraction of Bim BH3's signal on the same receptor and array (Bcl-xL, Q07817)
VEQFSEASQQDAELSEVLVLRLENYE | 0.02 | 0.02
CGDLASLSIDDWTLGEEVDGRRLVVA [BIRC6] | 0.02 | 0.02
SQGDKRVAFFMRKGLDCLSKWVGESE [ATAD2] | 0.03 | 0.06
ISDVQVFGYSDRFNADLLRSAVQQVN [DBC1] | 0.02 | 0.02
GLTWDPVGKYIASQLDDRSLKVWRTL [HIRA] | 0.55 | 0.86
FRFAQLCGLHIVIHADELEELMCYYQ [CLTCL1] | 0.02 | 0.02
PSLSKELTSSLAGVLDVSFDSDSQFP [CRTC1] | 0.01 | 0.02
KNIAGALAFWMANALELLNFIKQDRD [MLLT4] | 0.02 | 0.03
RIEMWISILEDNELGEYAAVELHQAK [KIF13A] | 0.02 | 0.03
VEQFSEASQQMAELSEVLVLRLENYE | 0.02 | 0.02
VILADPDGHEICFVLDEAFRELSKMD [GLOD4] | 0.02 | 0.02
ALKKADVGFAMGIALTDVAKEASDII [ATP2B1] | 0.01 | 0.02
RLAHEHHCLRIKILGDCYYCVSGLPE [ADCY8] | 0.02 | 0.03
LRCEMASTGEVACFLEGIHTAFLKAM [CPS1] | 0.03 | 0.02
IVGGCVVGIAMARFADFIRGMLKLIL [DIRC2] | 0.18 | 0.25
VEQFSEASQQMAELLEVLVLRLENYE | 0.02 | 0.02
PPDAHVLGKALEAALQDFSLDLRSTG [CIITA] | 0.02 | 0.01
GLFSATSGVDLKYVLDTFGQEVRPVS [DDX7] | 0.02 | 0.02
AFTEREASEIDKSIGEAIQYLHSINI [MAPKAPK2] | 0.02 | 0.02
